According to US20220119534A1 (DRAGONFLY THERAPEUTICS, published 2022):
Values joined by “and” are separate entries in the source; they are usually repeats but may differ in a detail not shown here. Identical values can stand only once.

T1: Human CD32a R131 (human, UniProt P12318 36-218, limits assumed, biotinylated)
T1 construct: Bought recombinant receptor; also called hFcγRIIa R131
T1 sequence (looked up): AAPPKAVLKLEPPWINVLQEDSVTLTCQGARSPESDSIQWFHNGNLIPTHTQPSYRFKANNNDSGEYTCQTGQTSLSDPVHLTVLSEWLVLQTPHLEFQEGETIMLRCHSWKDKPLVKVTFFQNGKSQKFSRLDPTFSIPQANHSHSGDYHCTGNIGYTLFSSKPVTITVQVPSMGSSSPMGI

T2: Human CD32a H131 (human, UniProt P12318 36-218, limits assumed, biotinylated)
T2 construct: Bought recombinant receptor; also called hFcγRIIa H131
T2 sequence (looked up): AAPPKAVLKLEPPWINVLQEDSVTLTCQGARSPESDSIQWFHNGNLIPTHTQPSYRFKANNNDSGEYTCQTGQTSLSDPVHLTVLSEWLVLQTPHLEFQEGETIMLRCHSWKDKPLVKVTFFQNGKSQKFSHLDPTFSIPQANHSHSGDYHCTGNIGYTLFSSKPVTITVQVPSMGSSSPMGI

T3: Human CLEC12A-K244Q-His (human, UniProt Q5QGZ9 65-265)
T3 construct: Polymorphic variant; also called hCLEC12A (Q244); not shown: His tag
T3 chain: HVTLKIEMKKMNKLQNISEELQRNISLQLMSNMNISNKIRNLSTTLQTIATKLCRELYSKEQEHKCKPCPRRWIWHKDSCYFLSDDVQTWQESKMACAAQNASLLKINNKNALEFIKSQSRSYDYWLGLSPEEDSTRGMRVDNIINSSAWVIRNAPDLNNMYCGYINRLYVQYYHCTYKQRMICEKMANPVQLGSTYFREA

T4: mFc-hNKG2D (human, UniProt P26718 73-216)
T4 construct: extracellular domain; Recombinant mFc-tagged NKG2D dimer, made in house; also called human NKG2D; not shown: mouse Fc tag
T4 sequence (looked up): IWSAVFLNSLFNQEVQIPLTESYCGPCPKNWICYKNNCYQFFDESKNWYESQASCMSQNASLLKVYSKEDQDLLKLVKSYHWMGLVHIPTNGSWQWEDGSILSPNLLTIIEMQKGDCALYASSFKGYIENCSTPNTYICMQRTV

T5: Human CLEC12A-His (human, UniProt Q5QGZ9 65-265)
T5 construct: Recombinant soluble protein made in house; also called hCLEC12A-His; hCLEC12A; not shown: His tag
T5 sequence: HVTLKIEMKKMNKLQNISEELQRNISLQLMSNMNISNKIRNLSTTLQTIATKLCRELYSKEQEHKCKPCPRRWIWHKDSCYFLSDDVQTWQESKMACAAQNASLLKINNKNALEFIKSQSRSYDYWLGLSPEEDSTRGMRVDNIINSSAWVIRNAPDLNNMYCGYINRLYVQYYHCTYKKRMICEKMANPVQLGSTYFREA

T6: recombinant human CD32a R131 (human, UniProt P12318 36-218, limits assumed, biotinylated)
T6 construct: also called FcγRIIa R131
T6 sequence (looked up): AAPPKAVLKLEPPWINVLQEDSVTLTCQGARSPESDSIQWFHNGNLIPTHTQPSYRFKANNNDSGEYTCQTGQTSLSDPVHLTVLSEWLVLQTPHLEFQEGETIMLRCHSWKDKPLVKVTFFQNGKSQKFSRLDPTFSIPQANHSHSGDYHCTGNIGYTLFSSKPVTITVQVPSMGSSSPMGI

T7: recombinant human CLEC12A-His (human, UniProt Q5QGZ9 65-265)
T7 construct: also called hCLEC12A-His; hCLEC12A
T7 sequence: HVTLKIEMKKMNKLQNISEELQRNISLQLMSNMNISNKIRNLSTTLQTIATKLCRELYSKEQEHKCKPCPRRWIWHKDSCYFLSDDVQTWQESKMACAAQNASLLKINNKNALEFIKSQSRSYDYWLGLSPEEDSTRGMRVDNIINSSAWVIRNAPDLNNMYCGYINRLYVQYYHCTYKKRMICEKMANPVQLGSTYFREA


Key:
[1] = target: T1, Human CD32a R131; test: SPR, steady state fit; average for AB0192
[2] = target: T2, Human CD32a H131; test: SPR, steady state fit; average for AB0192
[3] = target: T3, Human CLEC12A-K244Q-His; test: SPR, hCLEC12A (Q244) variant
[4] = target: T8, Human CD16a V158 (human, UniProt P08637 17-208, biotinylated); test: SPR; control sample (low pH hold study)
T8 construct: Bought recombinant receptor; also called hCD16a (V158); hFcγRIIIa V158

[5] = target: T4, mFc-hNKG2D; test: SPR; control sample (low pH hold study)
[6] = target: T5, Human CLEC12A-His; test: SPR; control sample (low pH hold study)
[7] = target: T6, recombinant human CD32a R131; test: SPR 25C, steady state
[8] = target: T7, recombinant human CLEC12A-His; test: SPR 37C, average
Procedure: Briefly, human Fc specific antibodies were covalently immobilized at a density of about 8000-10000 resonance units (RU) on carboxy methyl dextran matrix of a CM5 biosensor chip to create an anti-hFc IgG chip. […] Association was monitored for 300 seconds, and dissociation was monitored for 900 seconds. Surfaces were regenerated between cycles with three pulses of 10 mM glycine-HCl (pH 1.7) injected for 20 seconds at 100 μL/min.

T8 sequence (P08637 17-208 F176V limits assumed): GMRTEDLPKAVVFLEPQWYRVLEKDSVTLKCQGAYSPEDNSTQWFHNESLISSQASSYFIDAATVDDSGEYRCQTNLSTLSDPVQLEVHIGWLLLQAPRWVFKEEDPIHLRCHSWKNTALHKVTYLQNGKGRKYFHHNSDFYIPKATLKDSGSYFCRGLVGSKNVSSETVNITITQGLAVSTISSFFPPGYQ

Row | Binder | Kd [1] | Kd [2] | Kd [3] | koff [3] | kon [3] | Kd [4] | koff [4] | kon [4] | Kd [5] | koff [5] | kon [5] | Kd [6] | koff [6] | kon [6] | Kd [7] | Kd [8] | koff [8] | kon [8]
1 | AB0192 TriNKET (other, the condition stands under assay; also called AB0192 Lot AB0192-005) EVQLVESGGGVVQPGGSLRLSCAASGFTFNAFGMHWVRQAPGKCLEWVAFISSGSTSIYYANTVKGRFTISRDNSKNTLYLQMNSLRAEDTAVYYCARDGYPTGGAMDYWGQGTSVTVSSGGGGSGGGGSGGGGSGGGGSDIQMTQSPSSLSASVGDRVTITCKASQDIYNYLSWFQQKPGKAPKPLIYRANILVSGVPSRFSGSGSGQDYTFTISSLQPEDIATYYCLQFDAFPFTFGCGTKLEIKGSDKTHTCPPCPAPELLGGPSVFLFPPKPKDTLMISRTPEVTCVVVDVSHEDPEVKFNWYVDGVEVHNAKTKPREEQYNSTYRVVSVLTVLHQDWLNGKEYKCKVSNKALPAPIEKTISKAKGQPREPRVYTLPPCRDELTKNQVSLTCLVKGFYPSDIAVEWESNGQPENNYKTTPPVLVSDGSFTLYSKLTVDKSRWQQGNVFSCSVMHEALHNHYTQKSLSLSPG heavy: EVQLVESGGGLVKPGGSLRLSCAASGFTFSSYSMNWVRQAPGKGLEWVSSISSSSSYIYYADSVKGRFTISRDNAKNSLYLQMNSLRAEDTAVYYCARGAPIGAAAGWFDPWGQGTLVTVSSASTKGPSVFPLAPSSKSTSGGTAALGCLVKDYFPEPVTVSWNSGALTSGVHTFPAVLQSSGLYSLSSVVTVPSSSLGTQTYICNVNHKPSNTKVDKKVEPKSCDKTHTCPPCPAPELLGGPSVFLFPPKPKDTLMISRTPEVTCVVVDVSHEDPEVKFNWYVDGVEVHNAKTKPREEQYNSTYRVVSVLTVLHQDWLNGKEYKCKVSNKALPAPIEKTISKAKGQPREPQVCTLPPSRDELTENQVSLTCLVKGFYPSDIAVEWESNGQPENNYKTTPPVLDSDGSFFLYSWLTVDKSRWQQGNVFSCSVMHEALHNHYTQKSLSLSPG light: DIQMTQSPSSVSASVGDRVTITCRASQGISSWLAWYQQKPGKAPKLLIYAASSLQSGVPSRFSGSGSGTDFTLTISSLQPEDFATYYCQQGVSFPRTFGGGTKVEIKRTVAAPSVFIFPPSDEQLKSGTASVVCLLNNFYPREAKVQWKVDNALQSGNSQESVTEQDSKDSTYSLSSTLTLSKADYEKHKVYACEVTHQGLSSPVTKSFNRGEC | 1400 nM | 1010 nM | 4.51 nM | 0.0037 s⁻¹ | 824000 M⁻¹ s⁻¹ | 178 nM | 0.0199 s⁻¹ | 112000 M⁻¹ s⁻¹ | 779 nM | 0.146 s⁻¹ | 188000 M⁻¹ s⁻¹ | 1.83 nM | 0.00125 s⁻¹ | 685000 M⁻¹ s⁻¹ | – | – | – | –
2 | F3'-1602 TriNKET (other, CLEC12A scFv-Fc, NKG2D A49MI Fab-Fc, human IgG1 Fc; also called AB0237) QLQLQESGPGLVKPSETLSLTCTVSGFSLTNYGLHWIRQPPGKCLEWIGVIWSGGKTDYNPSLKSRVTISKDTSKNQFSLKLSSVQAADTAVYYCAKYDYDDSLDYWGQGTLVTVSSGGGGSGGGGSGGGGSGGGGSDIQMTQSPSSLSASVGDRVTITCHASQNINFWLSWYQQKPGKAPKLLIYEASNLHTGVPSRFSGSGSGTRFTLTISSLQPEDIATYYCQQSHSYPLTFGCGTKLEIKGSDKTHTCPPCPAPELLGGPSVFLFPPKPKDTLMISRTPEVTCVVVDVSHEDPEVKFNWYVDGVEVHNAKTKPREEQYNSTYRVVSVLTVLHQDWLNGKEYKCKVSNKALPAPIEKTISKAKGQPREPRVYTLPPCRDELTKNQVSLTCLVKGFYPSDIAVEWESNGQPENNYKTTPPVLVSDGSFTLYSKLTVDKSRWQQGNVFSCSVMHEALHNHYTQKSLSLSPG heavy: EVQLVESGGGLVKPGGSLRLSCAASGFTFSSYSMNWVRQAPGKGLEWVSSISSSSSYIYYADSVKGRFTISRDNAKNSLYLQMNSLRAEDTAVYYCARGAPIGAAAGWFDPWGQGTLVTVSSASTKGPSVFPLAPSSKSTSGGTAALGCLVKDYFPEPVTVSWNSGALTSGVHTFPAVLQSSGLYSLSSVVTVPSSSLGTQTYICNVNHKPSNTKVDKKVEPKSCDKTHTCPPCPAPELLGGPSVFLFPPKPKDTLMISRTPEVTCVVVDVSHEDPEVKFNWYVDGVEVHNAKTKPREEQYNSTYRVVSVLTVLHQDWLNGKEYKCKVSNKALPAPIEKTISKAKGQPREPQVCTLPPSRDELTENQVSLTCLVKGFYPSDIAVEWESNGQPENNYKTTPPVLDSDGSFFLYSWLTVDKSRWQQGNVFSCSVMHEALHNHYTQKSLSLSPG light: DIQMTQSPSSVSASVGDRVTITCRASQGISSWLAWYQQKPGKAPKLLIYAASSLQSGVPSRFSGSGSGTDFTLTISSLQPEDFATYYCQQGVSFPRTFGGGTKVEIKRTVAAPSVFIFPPSDEQLKSGTASVVCLLNNFYPREAKVQWKVDNALQSGNSQESVTEQDSKDSTYSLSSTLTLSKADYEKHKVYACEVTHQGLSSPVTKSFNRGEC | – | – | – | – | – | – | – | – | – | – | – | – | – | – | 1400 nM and 1300 nM and 1700 nM and 1200 nM | 0.59 nM | 0.000494 s⁻¹ | 844000 M⁻¹ s⁻¹
